The supplement of paper PMC9170038

Tested on: MS2 coat protein
Test: apparent KD of MS2 coat protein; designed switch direction (-1 OFF switch, 1 ON switch): -1; higher = weaker reporter binding
Procedure, shortened: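 Stalled E. coli RNA polymerase transcribed designed RNA switches on Illumina chips, which were then titrated with SNAP-549-labelled MS2 coat protein, doubling from 0.7 or 1.5 nM to 3 µM. Steps lasted from 0.8–1.5 h at the lowest concentration to 10–20 min at the highest. The apparent KD is each design's median over clusters of curve-fitted normalised fluorescence.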

[1] = Eterna round: R95, input ligand: FMN 200 uM
[2] = Eterna round: R95, input ligand: microRNA oligo, concentration not stated
[3] = Eterna round: R95, input ligand: none
[4] = input ligand: microRNA oligo, concentration not stated

Sequence	apparent KD of MS2 coat protein [1] [nM]	apparent KD of MS2 coat protein [2] [nM]	apparent KD of MS2 coat protein [3] [nM]	apparent KD of MS2 coat protein (input ligand: FMN 200 uM) [nM]	apparent KD of MS2 coat protein (input ligand: none) [nM]	apparent KD of MS2 coat protein [4] [nM]
UUUUAACAUGAGGAUCACCCAUGUGAGGAUAUGGUUUUUUUUUUUUUUUUUUUUUUUUCCAGAAGGCACAUUUU [My solution] (puzzle: Exclusion 1)	25.4	13.7	119			
GGUUUGGGAGGAUAUGGUUUUAAUAACAUGAGGAUCACCCAUGUAAAUAGAUCCUCAAGGCCAGAAGGCUCGGGCC [-24.9, -24.02 kcal, A 29%] (Eterna round: R97, puzzle: Exclusion 5)				508	143	
UAUUUAAGAGGAUAUACAUGAGGAUCACCCAUGUAUAUUAAAAUACAUGAUUUUUUAUGUAGAAGGCUUGGGUA [-21.5, -18.3 kcal, 35% A] (Eterna round: R97, puzzle: Exclusion 3)				23.6	16.9	
CUGUACAUAGGAUAUAGUUGUUUUUACAUGAGGAUCACCCAUGUUACUCCUCUCUCUCUUCUAGAAGGAUGUUUUU [JR_E5_Sub007] (puzzle: Exclusion 5)		78.1				
GCGGACUAGUACGUGAGUACUGAGACAUGAGGAUCACCCAUGUAGGAUAUCGAUUCGAAACGAAUCGAGAAGGGCAUAGUCCGC [JL denovo 10] (Eterna round: R96, puzzle: Exclusion NG 3)				19.7	21.2	18.9
AAGUCGGCAGGAUAUACAUGAGGAUCACCCAUGUAAAUUUUUCGUUUAACUUGAAUGUGUAGAAGGGCCAUGAA [Ex3 #67] (Eterna round: R97, puzzle: Exclusion 3)				25.8	27.2	
UUUUUAUAUGAAGGAUAUACUUAACAUGAGGAUCACCCAUGUGGUGUUGUGAGUGAGUGAGUUUAGUAGAAGGUCAAUGAUUAU [JMF's solution 59] (Eterna round: R96, puzzle: Exclusion NG 2)				991	321	205
GCUAGUCAUGUCAGGAUAUGCUGUACCUUGGUACAGCAGAAGGGACAUGAGGAUCACCCAUGUGCCUAGCUAGC [JL-BMX4-4.07] (Eterna round: R97, puzzle: Brourd's mod of Exclusion 4)				412	37.7	
GGAAAACAUGAGGAUCACCCAUGUAAGGAUAUGCAAAAGGAUAUAGAAGGAAAAAAAAGCAGAAGGUACAAAGG [salish99-ex1-21] (Eterna round: R96, puzzle: Exclusion 1)						34
AAGAAGUCAGGAUAUACAUGAGGAUCACCCAUGUAAAAGAAAGAAAAGGGAAAGAAAAGUAGAAGGGACAAGAA [Menkheperre Thutmose III] (Eterna round: R96, puzzle: Exclusion 3)				22.9	27.2	21.8
UGAGCUUCAGGAUAUACAAGGCGACCGUGAGGUCGAAGGUUACAUGAGGAUCACCCAUGUAGAAGGGAAGUUCU [Mat - Exclusion 2 - JL Mod - D13] (Eterna round: R97, puzzle: Exclusion 2)				36.7	21.6	
GCAGCAUAGAUAACAUACUGUUACAUGAGGAUCACCCAUGUACAGGAUAUGGUCUGGAUUACAGGCCAGAAGGGUACAAGCUGC [Eli exng3 - 021] (Eterna round: R96, puzzle: Exclusion NG 3)				10.8	12.1	8.63
UUUCAGCUAGGAUAUGCCCUGAUGCACAUGAGGAUCACCCAUGUCGGCUUGUGUAUGAGCGCAGAAGGAGCGAAAA [EX5 C.17] (Eterna round: R97, puzzle: Exclusion 5)				783	268	
AAAAUACGCACAGGAUAUCAAUACAUGAGGAUCACCCAUGUAACAUGGACUGGUCAGCAGAAAAGUGAGAAGGGUGCUGACGAC [Beraon] (Eterna round: R96, puzzle: Exclusion NG 2)				187	45.6	31.6
UUCCUCGUUGUGAGGAUAUCGUAUUCUUUUUGUUACGAGAAGGCACAUGAGGAUCACCCAUGUUUCUUGAUGUU [JR_BMOE4_Sub069] (puzzle: Brourd's mod of Exclusion 4)		19.6				
UCUUGUGUUGAGGAUAUGCGCCGGCUCGCUGGCGCAGAAGGCGGCACAUGAGGAUCACCCAUGUCAGUUCGCGC [salish99_ex6_r004_007] (Eterna round: R97, puzzle: Exclusion 6)				56.3	205	
AUAUCAAGCAAGGAUAUGCAAAUGGUUAUUUAUGCAGAAGGUGCAACAUGAGGAUCACCCAUGUUUCUGGGUUU [JR_E6_Sub049] (puzzle: Exclusion 6)		48.2				

Sequence	apparent KD of MS2 coat protein [1] [nM]	apparent KD of MS2 coat protein [2] [nM]	apparent KD of MS2 coat protein [3] [nM]	apparent KD of MS2 coat protein (input ligand: FMN 200 uM) [nM]	apparent KD of MS2 coat protein (input ligand: none) [nM]	apparent KD of MS2 coat protein [4] [nM]
CGGCUACGAUGAGGAUAUACGCACAUGAGGAUCACCCAUGUAAAUCACGGGUAAAGAUCGCCAUCGUAGAAGGCAUAAGGGCCC [Orsole] (Eterna round: R96, puzzle: Exclusion NG 2)				80.3	80.2	49.6
GUCCAGGCAGGAUAUGUACAGGAGCACUUGAGGAUCACCCAAGUCCUCGUGUUGUUGUCAGCAGAAGGGCCCAUUA [Dizaquin] (Eterna round: R97, puzzle: Exclusion 5)				529	187	
UAUAUAUAGUAAGGAUAUGUAUUAAUUUUAUCAACAGAAGGUACUGACAUGAGGAUCACCCAUGUUUUAGUGUGGGCAUGUAGA [JMF's solution 92] (Eterna round: R96, puzzle: Exclusion NG 1)						65.2
CCUCGGUCAGGAUAUGGGCCAUGCGAUGAUGAAGCCUGGCGCCAGAAGGGACAUGAGGAUCACCCAUGUCCGUA [Eternabot (Original) Solution 37] (Eterna round: R97, puzzle: Exclusion 4)				71.3	17.2	
GGUCAGAUGGUAGGAUAUCUAUAUCGAGUGACCCUUUCAUAACAUGAGGAUCACCCAUGUCGGUGGGAGAAGGGCCGUACGGCG [salish99_ExNG02_R04_012] (Eterna round: R96, puzzle: Exclusion NG 2)				41.1	40.2	30.6
GAGUACUGAGGAUAUACAUGAGGAUCACCCAUGUGUUCCAACUAGGAAUCUAGAAUGUGUAGAAGGCAGUGCUG [salish99_ex3_r4_703] (Eterna round: R97, puzzle: Exclusion 3)				298	262	
CCGGAAGUACAGGAUAUCGUAUCGGAUACGAUACGAGAAGGGUAUACAUGAGGAUCACCCAUGUGUCCUACCGG [Fiskers Ex 6 - 55] (puzzle: Exclusion 6)		19.6				
UAGAUGGGAGGAUAUGCAUAGAUACAGAUUCAUGUAGUGCUACAUGAGGAUCACCCAUGUAGAAGGCCCGUCUU [JL-ex2-2.20 Mayanne mod] (Eterna round: R96, puzzle: Exclusion 2)				208	24.1	22.1
CCCAGUUAUCUAGGAUAUUGUACAUGAGGAUCACCCAUGUAAUAAAUGAGGAUUUCGGGUGUCUACAAGAAGGAGAGGAUAGGC [Ostracism 16 - Jieux - Exclusion NG 2] (Eterna round: R96, puzzle: Exclusion NG 2)						20.4
AGGCGCUAGUAGGAUAUCUGGAACGGAUUAUAAAGAGAAGGGCUGACAUGAGGAUCACCCAUGUGACCAAUGCG [Eternabot (L1) Solution 50] (Eterna round: R97, puzzle: Exclusion 6)				41.2	50.6	
UAACAAGCUUAAAGAUCCUACAUGAGGAUCACCCAUGUGCUCGUCUUAUAACGUACUGUGACGAAAGUCACGGUACG [JL TOV1 3.14] (Eterna round: R97, puzzle: Sensor, turn-off variant 1)				348	395	
GCUGGUCGAGGAUAUACAUUCGUGCUUCGGCACGUAAGGUCACAUGAGGAUCACCCAUGUAGAAGGCGACCAGC [E2/7-A1] (Eterna round: R97, puzzle: Exclusion 2)				258	42.2	
AGUACUAACGCGAAAGUGUUAGUACAAUAAGCUUGUGAAACAUGAGGAUCACCCAUGUCCUCAUAAGCUCGUCUUAU [salish99_TOv2_r3_023] (puzzle: Sensor v3, turn-off variant 2)	19	549	16.1			
CCCAGUUAGAGAGGAUAUCUUACAUGAGGAUCACCCAUGUAAUAAAUGAGGAUUUCGGGUGUCUAAGAGAAGGCUCGGAUAGGC [Ostracism 29 - Jieux - Exclusion NG 2] (Eterna round: R96, puzzle: Exclusion NG 2)				37.9	26.4	15.3
GGCCAGAUAGGAUAUACUUGAGGAUCACCCAAGUAAAGGAGCAAGCUCCGAUCCUUUGGUAGAAGGAUCGGCCA [Diqulees] (Eterna round: R97, puzzle: Exclusion 3)				92.7	52.8	
UAUUAACAAGCAAGGUCCCACAUGAGGAUCACCCAUGUGCUCGUCUUAUAAGGUACUGUGACGAAAGUCACGGUACC [Sensor 3, v1 - 81] (puzzle: Sensor v3, turn-off variant 1)	32.4	469	33.6			
GCACGGUAAGUGAGGAUAUACCUCUGGAUACAGAGGUAGAAGGCACAUGAGGAUCACCCAUGUCCUAGCCGUGC [Fiskers BMX 4 - 88] (puzzle: Brourd's mod of Exclusion 4)		32.9				
